Common to all, as to experiment: other fluorescence titration
For assay [1], the target named is Prdx1 protein labeled with Alexa Fluor 546 (UniProt Q06830).
The target is the same in assay [2]. This is another data set of the same source.
For assay [3] the target is unchanged. The source holds these as a separate data set.

Like-named read-outs stand apart in the source and are kept apart here.

Sequence of Prdx1 protein labeled with Alexa Fluor 546 (Q06830 whole entry): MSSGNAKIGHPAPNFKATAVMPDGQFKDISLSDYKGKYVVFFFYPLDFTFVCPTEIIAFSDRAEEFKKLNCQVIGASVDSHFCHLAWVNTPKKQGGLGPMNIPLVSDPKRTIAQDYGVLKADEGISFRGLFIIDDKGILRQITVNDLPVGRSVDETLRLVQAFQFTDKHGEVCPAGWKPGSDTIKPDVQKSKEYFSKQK

Broadly, the Kd is the free concentration of one partner at which half of the binding sites on the other are occupied at equilibrium, for simple one-to-one binding. A higher Kd goes with lower affinity. As to “MKP-1 protein labeled with QSY 35 (from UniProt P28562 1-367) (enzyme)”, the values for the Kd in assay [1], in assay [2] and in assay [3] were 0.215 µM, 0.21 µM and 0.261 µM, respectively.

Source of the values: PMC3936261.
